Values joined by “and” are separate entries in the source; they are usually repeats but may differ in a detail not shown here. Equal values may be shown once.
T1: human PAR-2 (human, UniProt P55085 26-397)
T1 sequence: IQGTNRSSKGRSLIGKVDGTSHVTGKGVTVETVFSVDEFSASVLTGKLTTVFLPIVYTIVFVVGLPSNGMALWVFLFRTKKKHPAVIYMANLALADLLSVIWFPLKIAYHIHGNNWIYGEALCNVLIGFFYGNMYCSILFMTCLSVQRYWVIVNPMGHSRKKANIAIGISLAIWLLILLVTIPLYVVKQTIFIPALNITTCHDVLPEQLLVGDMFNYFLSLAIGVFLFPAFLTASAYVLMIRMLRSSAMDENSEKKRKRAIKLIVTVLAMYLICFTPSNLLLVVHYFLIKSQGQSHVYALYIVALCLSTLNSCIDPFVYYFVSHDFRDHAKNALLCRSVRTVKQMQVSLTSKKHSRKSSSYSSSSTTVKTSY

T2: human PAR-1 (human, UniProt P25116 22-425)
T2 construct: also called huPAR-1
T2 sequence: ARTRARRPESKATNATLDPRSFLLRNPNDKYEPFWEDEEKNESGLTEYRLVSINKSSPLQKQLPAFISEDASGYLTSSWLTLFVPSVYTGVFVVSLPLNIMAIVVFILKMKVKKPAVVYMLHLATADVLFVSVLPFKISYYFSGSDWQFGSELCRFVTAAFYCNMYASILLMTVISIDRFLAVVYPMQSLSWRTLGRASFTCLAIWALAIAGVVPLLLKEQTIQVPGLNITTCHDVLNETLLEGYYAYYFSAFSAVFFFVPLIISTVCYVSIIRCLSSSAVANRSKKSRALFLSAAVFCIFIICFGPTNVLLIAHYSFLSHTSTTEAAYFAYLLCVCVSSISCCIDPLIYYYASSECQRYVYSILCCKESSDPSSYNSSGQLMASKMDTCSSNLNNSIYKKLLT


How the values were obtained:
human PAR-2 [1] = molecular target: T1, human PAR-2; test: cell-based or functional assay
human PAR-1 = molecular target: T2, human PAR-1; test: flow cytometry, transfected Expi293F cells
Description: Paired heavy and light chains encoded by these sequence pairs were expressed as a full length human IgG4 isotype antibodies and assessed for PAR-2 binding and selectivity by flow cytometry. […] Cells were used for flow cytometric analysis 36-48 hours post-transfection. Use of Nt-PAR-2 as a target allowed antibodies which bound the N-terminal residues of PAR-2 (which comprise the protease-cleavage sites on PAR-2) to be distinguished from antibodies which bound other extracellular sites on PAR-2, such as the PAR-2-activating ligand-binding site(s). Expi293F cells, transiently expressing one of each of the different target proteins were labelled with different intensities of a single fluorphor Encoder dye (Intellicyt) for 10 mins at either 1 in 250 dilution for high intensity and/or 1 in 1500 dilution for moderate intensity, enabling simultaneous analysis of multiple cell populations. After washing the cells were then mixed in an equal ratio with the unlabeled cell type and analyzed for antibody binding.
The cells were plated in 96 well plates at 2×10⁵ cells/well. Following a wash step using Phosphate buffered saline (PBS), the primary antibody (anti-PAR-2 antibody) was added at a concentration of 10 μg/mL in 50 μL of FACS buffer (0.5% w/v BSA in PBS) to each well and incubated for 10-15 mins. Following a wash step, secondary antibody (anti-human Fc-FITC) was added to the wells at 1:200 dilution in 50 μL for 10-15 mins. Following a washing step, the cells were re-suspended in fluorescence-activated cell sorting (FACS) buffer. The flow cytometry analysis was performed on an Intellicyt iQue screener. Gates were drawn around the different intensities of encoder dye-positive cells and these populations were analyzed separately from each other and the unlabeled cells for binding by the primary antibody.

human PAR-2 [2] = molecular target: T1, human PAR-2; test: cell-based or functional assay; remark: listed apart in the source
human PAR-2 [3] = molecular target: T1, human PAR-2; test: cell-based or functional assay; remark: listed apart in the source

| IC50, PAR-2 β-arrestin cell assay (human PAR-2 [1]) [nM] | binding result (human PAR-1) | Calcium flux IC50 (human PAR-2 [2]) | IL-6 release in A549 cells IC50 (human PAR-2 [2]) [nM] | IL-8 release in A549 cells IC50 (human PAR-2 [2]) [nM] | PAR-2 β-arrestin cell based assay IC50, 2 µM SLIGKV (human PAR-2 [3]) | Binder |
| --- | --- | --- | --- | --- | --- | --- |
| 18.2 | no binding (tested: 10 µg/mL) | – | – | – | – | Ab343 (antibody, human IgG4, V domains shown, also called Anti-PAR-2 antibody # 343) VH: EVQLVESGGGLVQPGRSLKLSCVASGFTFNNYWMSWIRQAPGKGLEWVASITNTGGRIFYPDSVKGRFTISRDNAQNTLYLQMNSLRSEDAATYYCTRDRLYYGSNWFTYWGQGTLVTVSS VL: DIQMTQSPHSLSASLGETVSIECLASEAISNYLAWYQQKPGKSPQLLIYYASSLKDGVPSRISGSGSGTQYSLKISNMQPEDEGVYYCQQGYKYPRTFGGGTKLELK |
| 13.7 | no binding (tested: 10 µg/mL) | – | – | – | – | Ab392 (antibody, human IgG4, V domains shown, also called Anti-PAR-2 antibody # 392) VH: EVQLVESGGGLVQPGRSLKLSCVASGFTFNNKWMTWIRQAPGKGLEWIASITNTGGRTFYPDSVKGRFTISRDDAKSTLYLQMNSLRSEDTATYYCTRATIRRGASYFDYWGQGVMVTVSS VL: DIQMTQSPHSLSASLGEGVSIECLASEGISNYLAWFQQKPGKSPQLLIYYASSLQDGVPSRFSGSGSGTQYSLKISNMQPEDEGVYYCQQGYKYPWTFGGGTKLELK |
| 8.2 | no binding (tested: 10 µg/mL) | – | – | – | – | Ab313 (antibody, human IgG4, V domains shown, also called Anti-PAR-2 antibody # 313) VH: EVQLKESGPGLVQPSQTLSLTCTVSGFSLTDYSVHWVRQPPGKGLEWMGVMWSGGSTSYNSPLKSRLSISRDTSKSQVFLKTNSLQTEDTAIYYCTRARPTVATLDYWGQGVMVTVSS VL: DIQMTQSPSVLSASVGDRVILNCKASQKINKYLNWYQQKLGEAPKLLIYTTNNLQTGIPSRFSGSGSGTDFTLTISSLQPEDFATYFCFQHSSWPTFGAGTKLELK |
| 1.8 | no binding (tested: 10 µg/mL) | – | – | – | – | Ab311 (antibody, human IgG4, V domains shown, also called Anti-PAR-2 antibody # 311) VH: QVQLKESGPGLVQPSQTLSLSCTVSGFSLTTYGVIWVRQPPGKGLMWMGVIWGNGNTYYNSPLKSRLSISRDTSKSQVFLKMNNLQSEDTAMYFCGRWRGYKDYPFDYWGQGVKVTVSS VL: DIQMTQSPSFLSASVGDRVTINCKASQNIYKYLDWYQQKLGEAPKLLIYNSNILHTGVPSRFSGSGSGTDFTLSISSLQPEDVATYFCLQHNSGWTFGGGSKLELR |
| 2.7 | no binding (tested: 10 µg/mL) | – | – | – | – | Ab348 (antibody, human IgG4, V domains shown, also called Anti-PAR-2 antibody # 348) VH: QVQLKESGPGLVQPSQTLSLTCSVSGFSLSSYGVIWVRQPPGKGLEWMGVVWGNGNTAYNFTLKSRLTISRDTSKSQVFLKMNNLQTEDTAMYFCGRWRGFKDYPFDYWGQGVMVTVSS VL: DIQMTQSPSFLSASVGDRVTINCKASQNIYKYLDWYQQKLGEAPKLLIYNTNSLHTGIPSRFSGSGSGTDFTLTISSLQPEDVATYFCLQHNSGWTFGGGTKLELK |
| 2.1 | no binding (tested: 10 µg/mL) | – | – | – | – | Ab323 (antibody, human IgG4, V domains shown, also called Anti-PAR-2 antibody # 323) VH: QVQLKESGPGLVQPSQTLSLTCSVSGFSLSTYGIIWVRQPPGKGLEWMGVIWGNGNTHYNSALKSRLSITRDTSKSQVFLKMNNLQTEDTAMYFCGRWRGYKDYPFDYWGQGVMVTVSS VL: DIQMTQSPSFLSASVGDRVTINCKASQNIYKYLDWYQQKLGEAPKLLMYNTNTLHTGIPSRFSGSGSGTDFTLTISSLQPEDVATYFCLQHNSGWTFGGGTKLELK |
| 1.9 | no binding (tested: 10 µg/mL) | – | – | – | – | Ab342 (antibody, human IgG4, V domains shown, also called Anti-PAR-2 antibody # 342) VH: QVQLKESGPGLVQPSQTLSLSCTVSGFSLNTYGVIWVRQPPGKGLDWMGVIWGNGNTYYDSALKSRLSISRDTSKSQIFLKMNNLQSEDTAMYFCGRWRGFKDYPFDYWGQGVKVTVSS VL: DIQMTQTPSFLSASVGDRVTINCRASQNIYKYLDWYQLKLGEAPKLLIYNTNTLHTGIPSRFSGSGSGTDFTLTISSLQPEDVATYFCLQHNSGWAFGGGTKLELK |
| – | – | 15.9 nM and 15.3 nM and 7.1 nM and 5.9 nM | 5.63 | 4.25 | 0.9 nM and 1.26 nM | P24E976 (antibody, human IgG4 S228P, kappa, V domains shown) VH: QVQLVQSGAEVKKPGSSVKVSCKASGFSLSSYAISWVRQAPGQGLEWMGVIWGNQNVYYAQKFQGRVTITADESTSTAYMELSSLRSEDTAVYYCARWKGYKDYPFDYWGQGTLVTVSS VL: EIVLTQSPATLSLSPGERATLSCRASQNVYKWLDWYQQKPGQAPRLLIYNAYSRATGIPARFSGSGSGRDFTLTISSLEPEDFAVYYCQQHHSGWTFGGGTKVEIKR |
| – | – | 12.3 nM | 6.74 | 4.89 | 1.37 nM | P24E1099 (antibody, human IgG4 S228P, kappa, V domains shown) VH: QVQLVQSGAEVKKPGSSVKVSCKASGFSLSSYAISWVRQAPGQGLEWMGVIWGNQNVYYAQKFQGRVTITADESTSTAYMELSSLRSEDTAVYYCARWKGYKDYPFDYWGQGTLVTVSS VL: EIVLTQSPATLSLSPGERATLSCRASQNVYKWLDWYQQKPGQAPRLLIYNANSRATGIPARFSGSGSGRDFTLTISSLEPEDFAVYYCQQHHSGWTFGGGTKVEIKR |
| 36.7 | no binding (tested: 10 µg/mL) | – | – | – | – | Ab114 (antibody, human IgG4, V domains shown, also called Anti-PAR-2 antibody # 114) VH: QVQLQQSGPELVKPGASVKISCKTSGFTFTSYYIHWVKQRPGQGLEWIGWIYPGSGNTYYNERFKGKATLTADTSSSTASMQLSSLTSEDSAVYYCANGPLFYGSSYWYFDVWGTGTTVTVSS VL: DVQITQSPSYLAASPGETITINCRASKSISRYLAWYQEKPGKTNKLLIYSGSTLQSGVPSRFSGSGFGTDFTLTISSLEPEDFAMYYCQQHNKYPLTFGAGTKLELK |
| 9.9 | no binding (tested: 10 µg/mL) | – | – | – | – | Ab86 (antibody, human IgG4, V domains shown, also called Anti-PAR-2 antibody # 86) VH: EVQLVESGGGLVQPKGSLKLSCAASGFTFNTYAMHWVRQAPGKGLEWVARIRSKNVHYATYYADSVKDRFTISRDDSQNMLYLQMNNLKTEDTAMYYCVREDYYGSSYDYWGQGTTLTVSS VL: DIVMTQSHKFMSTSLGDRVSITCKASQDVGSAVAWHQQKPGQSPKVLIYWASNRHTGVPDRFTGSGSGTDFTLTISNVQSEDLADYFCQQYSSYPFTFGSGTKLEIK |
| 5.6 | no binding (tested: 10 µg/mL) | – | – | – | – | Ab87 (antibody, human IgG4, V domains shown, also called Anti-PAR-2 antibody # 87) VH: EVQLVESGGGLVQPKGSLKLSCAASGFTFYSYAMHWVRQAPGRGLEWVARIRSKNVHYATYYADSVKDRFTISRDDSQNMLYLQMNNLKTEDTAMYYCVREDYYGSSYDYWGQGTTLTVSS VL: DIVMTQSHKFMSTSVGDRVSITCKASQDVRSAVAWHQQKPGQSPKLLIYWASNRHTGVPDRFTGSGSGTDFTLTISNVQSEDLADYFCQQYSSYPFTFGSGTKLEIK |
| 6 | no binding (tested: 10 µg/mL) | – | – | – | – | Ab84 (antibody, human IgG4, V domains shown, also called Anti-PAR-2 antibody # 84) VH: EVQLIESGGGLVQPKGSLKLSCAASGFTFNSYAMHWVRQAPGKGLEWVARIRSKNVHYATYYADSVKDRFTISRDDSQSMLYLQMNNLKTEDTAMYFCVREDYYGSSYDYWGQGTTLTVSS VL: DIVMTQSHKFMSTSVGDRVSITCKASQDVGSAVAWHQQKPGQSPKLLIYWTSNRHTGVPDRFTGRRSGTDFTLTISNVQSEDLADYFCQQYSTYPFTFGSGTKLEIK |
| 16 | no binding (tested: 10 µg/mL) | – | – | – | – | Ab360 (antibody, human IgG4, V domains shown, also called Anti-PAR-2 antibody # 360) VH: EVQLVESGGGLVQPGRSLKLSCVASGFTFNNYWMTWIRQAPGKGLEWVASITNTGGSTYYPDSVKGRFTISRDNAKSTLYLQMNSLRSEDTATYYCTREGIRGTGWFAYWGQGTLVTVSS VL: DTVLTQSPALAVSPGERVTISCRASESVRTRMHWYQQRPGQQPKLLIYGASNPESGVPARFSGSGSGTDFTLTIDPVEADDSATYFCHQSWNEYTFGAGTKLELK |

From patent publication US20220056125A1 (CEPHALON, published 2022)
